In patent US9475855B2, “Human Notch3 based fusion proteins as decoy inhibitors of Notch3 signaling” (THE TRUSTEES OF COLUMBIA UNIVERSITY IN THE CITY OF NEW YORK, priority 2008, dated 2016):

System: Notch1 signaling
Experiment: co-culture assay of ligand-induced Notch signaling (CSL-luciferase reporter; HeLa expressing Notch1, ligand-expressing 293/Bosc cells)
Format: cell-based
Settings: for activation of Notch1 signaling by Notch ligands: N1ECD/Fc expression vector co-transfected with full-length Notch1 and CSL-luciferase reporter in HeLa cells, co-culture with ligand expressing cells
Procedure: Notch and Notch responsive transcriptional reporters are expressed in a “Notch-responsive” cell, HeLa. Notch ligands, Jagged-1, Delta-like 1, or Delta-like 4 are expressed in a “ligand-presenting” cell, 293. Expression is mediated by transfection of individual cell populations, cells are co-cultured, and then assayed for Notch-dependent reporter activity.
To determine ligand-induced Notch signaling, co-culture assays were performed using HeLa and 293-derived Bosc cells. Transient transfections were performed by calcium phosphate precipitation. Hela cells plated 1-day prior in 10-cm plates at 1.5×10^6 were transfected with 333 ng of pBOS Notch1, 333 ng pGA981-6, and 83 ng pLNC lacZ with either 666 ng pCMV-Fc or pHyTC-N1ECDFc (333 ng for x1, 666 ng for x2). Bosc cells plated 1-day prior in 10-cm plates at 4×10^6 were transfected with either 680 ng pHyTc-Jagged1, pHyTc-Dll1, pHyTc-Dll4, or pHyTc-x (empty vector). One day after transfection, the cells were co-cultured in triplicate (HeLa:Bosc, 1:2) on 12-well plates for 24 hours. Cells were harvested and luciferase activity was determined 2-days post-transfection using the Enhanced Luciferase assay kit (BD PharMingen), and […] activity was determined using the Galacto-Light Plus kit (PE Biosystems). All assays were performed in a Berthold dual-injection luminometer.
An in vitro co-culture system (FIG. 3) with ligands expressed on one cell and Notch receptor activation scored in another cell was used to measure transcriptional activation of the Notch pathway. […] The N1ECD/Fc expression vector was co-transfected at different ratios with full-length Notch1 and the CSL-luciferase reporter in HeLa cells, followed by co-culture with ligand expressing 293 cells. We observed that activation of Notch1 signaling by Notch ligands was reduced by N1ECD/Fc expression. […] Notch1ECD/Fc could block signaling mediated by Jagged1, Delta-like 1 or Delta-like 4.

B1: N1ECDFc: Notch-based fusion protein or decoy: Notch1 extracellular domain EGF repeats fused to Fc; expressed from plasmid or adenovirus (Ad-N1ECDFc) (protein)
chain: ARGLRCSQPSGTCLNGGRCEVANGTEACVCSGAFVGQRCQDPSPCLSTPCKNAGTCYVVDHGGIVDYACSCPLGFSGPLCLTPLANACLANPCRNGGTCDLLTLTEYKCRCPPGWSGKSCQQADPCASNPCANGGQCLPFESSYICGCPPGFHGPTCRQDVNECSQNPGLCRHGGTCHNEIGSYRCACRATHTGPHCELPYVPCSPSPCQNGGTCRPTGDTTHECACLPGFAGQNCEENVDDCPGNNCKNGGACVDGVNTYNCRCPPEWTGQYCTEDVDECQLMPNACQNAGTCHNSHGGYNCVCVNGWTGEDCSDNIDDCASAACFQGATCHDRVASFYCECPHGRTGLLCHLNDACISNPCNEGSNCDTNPVNGKAICTCPRGYTGPACSQDVDECALGANPCEHAGKCLNTLGSFECQCLQGYTGPRCEIDVNECISNPCQNDATCLDQIGEFQCICMPGYEGVYCEINTDECASSPCLHNGRCVDKINEFLCQCPKGFSGHLCQYDVDECASTPCKNGAKCLDGPNTYTCVCTEGYTGTHCEVDIDECDPDPCHIGLCKDGVATFTCLCQPGYTGHHCETNINECHSQPCRHGGTCQDRDNYYLCLCLKGTTGPNCEINLDDCASNPCDSGTCLDKIDGYECACEPGYTGSMCNVNIDECAGSPCHNGGTCEDGIAGFTCRCPEGYHDPTCLSEVNECNSNPCIHGACRDGLNGYKCDCAPGWSGTNCDINNNECESNPCVNGGTCKDMTSGYVCTCREGFSGPNCQTNINECASNPCLNQGTCIDDVAGYKCNCPLPYTGATCEVVLAPCATSPCKNSGVCKESEDYESFSCVCPTGWQGQTCEIDINECVKSPCRHGASCQNTNGSYRCLCQAGYTGRNCESDIDDCRPNPCHNGGSCTDGVNAAFCDCLPGFQGAFCEEDINECATNPCQNGANCTDCVDSYTCTCPTGFNGIHCENNTPDCTESSCFNGGTCVDGINSFTCLCPPGFTGSYCQYDVNECDSRPCLHGGTCQDSYGTYKCTCPQGYTGLNCQNLVRWCDSAPCKNGGKCWQTNTQYHCECRSGWTGFNCDVLSVSCEVAAQKRGIDVTLLCQHGGLCVDEEDKHYCHCQAGYTGSYCEDEVDECSPNPCQNGATCTDYLGGFSCKCVAGYHGSNCSEEINECLSQPCQNGGTCIDLTNTYKCSCPRGTQGVHCEINVDDCHPPLDPASRSPKCFNNGTCVDQVGGYTCTCPPGFVGERCEGDVNECLSNPCDPRGTQNCVQRVNDFHCECRAGHTGRRCESVINGCRGKPCRNGGVCAVASNTARGFICRCPARFEGATCENDARTCGSLRCLNGGTCISGPRSPTCLCLGSFTGPECQFPASSPCVGSNPCYNQGTCEPTSESPFYRCLCPAKFNGLLCHILDYSFTDLGPG
modifications: left off: a dimerising Fc or GST
concentration-dependency of inhibiting signaling (2:1 ratio of N1ECD/Fc to Notch1 compared with 1:1 ratio): more effective
activation of Notch1 signaling by Notch ligands: inhibition
activation of Notch1 signaling by Notch ligands (listed as N1ECD/Fc): reduced
signaling mediated by Delta-like 1 (co-culture with Delta-like 1 expressing cells): block
signaling mediated by Delta-like 4 (co-culture with Delta-like 4 expressing cells): block
signaling mediated by Jagged1 (co-culture with Jagged1 expressing cells): block
